In article PMC3470543, “Effects of the Missense Mutations in Canine BRCA2 on BRC Repeat 3 Functions and Comparative Analyses between Canine and Human BRC Repeat 3” (PLoS ONE, 2012) one finds response data, which are given here for four variants.

First the molecules themselves.
B1: Gal4-DBD-fused wild-type canine BRC3 [canine] / VP16 transactivation domain-fused canine RAD51 [canine] (parent complex)
chain 1: GQNIKDFDTFYLSFQTASRKNIRVSKESLNKARSLLNQKWTEEELNNFSDSLNSELLPGIDIKKTDISNHEVI
chain 2: MAMQMQLEANADTSVEEESFGPQPISRLEQCGINANDVKKLEEAGFHTVEAVAYAPKKELISIKGISEAKADKILTEAAKLVPMGFTTATEFHQRRSEIIQITTGSKELDKLLQGGIETGSITEMFGEFRTGKTQICHTLAVTCQLPIDRGGGEGKAMYIDTEGTFRPERLLAVAERYGLSGSDVLDNVAYARGFNTDHQTQLLYQASAMMVESRYALLIVDSATALYRTDYSGRGELSARQMHLARFLRMLLRLADEFGVAVVITNQVVAQVDGAAMFAADPKKPIGGNIIAHASTTRLYLRKGRGETRICKIYDSPCLPEAEAMFAINADGVGDAKD
B2: Gal4-DBD-fused wild-type canine BRC3 [canine] / VP16 transactivation domain-fused human RAD51 [human] (parent complex)
chain 1: B1 chain 1
chain 2: B1 chain 2 with S62N, T76A, G194A

Numbering of substitutions follows the chain as printed.

In one assay the parent is B1. The assay can be described thus: mammalian two-hybrid assay; HeLa cells; luciferase activity determined 48 h after transfection; n = 3; read off a plot.
In the case of chain 1 T16P, the response was approximately 3.5 Firefly/Renilla.

chain 1 K26R: the response was approximately 120 Firefly/Renilla.

Variants of B2 are the subject of another assay. Described as above.
For chain 1 K26R, the response was approximately 34 Firefly/Renilla.

Take chain 1 T16P: the response is approximately 2.2 Firefly/Renilla.
